# ± gives the standard deviation of the averaged measurements.
# Experiment: total protein half-life in vivo (active degradation + dilution); higher = more stable protein
# [1] = E. coli NCM3722 delta-clpP delta-lon delta-hslV, growth: N-lim chemostat, doubling time 6 h
# [2] = E. coli NCM3722 delta-clpP, growth: N-lim chemostat, doubling time 6 h
# [3] = E. coli NCM3722 delta-hslV, growth: N-lim chemostat, doubling time 6 h
# [4] = E. coli NCM3722 delta-lon, growth: N-lim chemostat, doubling time 6 h
# [5] = E. coli NCM3722 delta-smpB, growth: N-lim chemostat, doubling time 6 h
# [6] = wild type E. coli NCM3722, growth: C-lim chemostat, doubling time 3 h
# [7] = wild type E. coli NCM3722, growth: C-lim chemostat, doubling time 6 h
# [8] = wild type E. coli NCM3722, growth: C-lim chemostat, doubling time 12 h
# [9] = wild type E. coli NCM3722, growth: N-lim chemostat, doubling time 6 h
# [10] = wild type E. coli NCM3722, growth: N-lim chemostat, doubling time 12 h
# [11] = wild type E. coli NCM3722, growth: P-lim chemostat, doubling time 6 h
# [12] = wild type E. coli NCM3722, growth: P-lim chemostat, doubling time 12 h
Sequence,total protein half-life in vivo [1] [h],total protein half-life in vivo [2] [h],total protein half-life in vivo [3] [h],total protein half-life in vivo [4] [h],total protein half-life in vivo [5] [h],total protein half-life in vivo [6] [h],total protein half-life in vivo [7] [h],total protein half-life in vivo [8] [h],total protein half-life in vivo [9] [h],total protein half-life in vivo [10] [h],total protein half-life in vivo [11] [h],total protein half-life in vivo [12] [h]
MAQQTPLYEQHTLCGARMVDFHGWMMPLHYGSQIDEHHAVRTDAGMFDVSHMTIVDLRGSRTREFLRYLLANDVAKLTKSGKALYSGMLNASGGVIDDLIVYYFTEDFFRLVVNSATREKDLSWITQHAEPFGIEITVRDDLSMIAVQGPNAQAKAATLFNDAQRQAVEGMKPFFGVQAGDLFIATTGYTGEAGYEIALPNEKAADFWRALVEAGVKPCGLGARDTLRLEAGMNLYGQEMDETISPLAANMGWTIAWEPADRDFIGREALEVQREHGTEKLVGLVMTEKGVLRNELPVRFTDAQGNQHEGIITSGTFSPTLGYSIALARVPEGIGETAIVQIRNREMPVKVTKPVFVRNGKAVA,4.25 ± 0.29,3.94 ± 0.048,4.22 ± 0.35,4.16 ± 0.17,3.94 ± 0.068,3.01 ± 0.22,5.71 ± 0.81,10.5 ± 0.62,3.81 ± 0.2,6.76 ± 0.92,5.88 ± 0.12,11.4 ± 0.68
MAQVAIITASDSGIGKECALLLAQQGFDIGITWHSDEEGAKDTAREVVSHGVRAEIVQLDLGNLPEGALALEKLIQRLGRIDVLVNNAGAMTKAPFLDMAFDEWRKIFTVDVDGAFLCSQIAARQMVKQGQGGRIINITSVHEHTPLPDASAYTAAKHALGGLTKAMALELVRHKILVNAVAPGAIATPMNGMDDSDVKPDAEPSIPLRRFGATHEIASLVVWLCSEGANYTTGQSLIVDGGFMLANPQFNPE,5.0837 ± 0.0019,4.64 ± 0.2,5.14 ± 0.54,4.36 ± 0.089,4.64 ± 0.24,2.863 ± 0.007,5.19 ± 0.38,11 ± 0.19,4.81 ± 0.42,7.86 ± 0.13,5.6 ± 0.22,10.9 ± 0.34
MARLAAFDMDGTLLMPDHHLGEKTLSTLARLRERDITLTFATGRHALEMQHILGALSLDAYLITGNGTRVHSLEGELLHRDDLPADVAELVLYQQWDTRASMHIFNDDGWFTGKEIPALLQAFVYSGFRYQIIDVKKMPLGSVTKICFCGDHDDLTRLQIQLYEALGERAHLCFSATDCLEVLPVGCNKGAALTVLTQHLGLSLRDCMAFGDAMNDREMLVSVGSGFIMGNAMPQLRAELPHLPVIGHCRNQAVSHYLTHWLDYPHLPYSPE,5.84 ± 0.52,,,1.61,,,,,,,,
MARLFTLSESKYYLMALDAGTGSIRAVIFDLEGNQIAVGQAEWRHLAVPDVPGSMEFDLNKNWQLACECMRQALHNAGIAPEYIAAVSACSMREGIVLYNNEGAPIWACANVDARAAREVSELKELHNNTFENEVYRATGQTLALSAIPRLLWLAHHRSDIYRQASTITMISDWLAYMLSGELAVDPSNAGTTGLLDLTTRDWKPALLDMAGLRADILSPVKETGTLLGVVSSQAAELCGLKAGTPVVVGGGDVQLGCLGLGVVRPAQTAVLGGTFWQQVVNLAAPVTDPEMNVRVNPHVIPGMVQAESISFFTGLTMRWFRDAFCAEEKLIAERLGIDTYTLLEEMASRVPPGSWGVMPIFSDRMRFKTWYHAAPSFINLSIDPDKCNKATLFRALEENAAIVSACNLQQIADFSNIHPSSLVFAGGGSKGKLWSQILADVSGLPVNIPVVKEATALGCAIAAGVGAGIFSSMAETGERLVRWERTHTPDPEKHELYQDSRDKWQAVYQDQLGLVDHGLTTSLWKAPGL,4.78 ± 0.065,1.36,,2.49,1.27,1.55 ± 0.35,2.83 ± 0.42,2.92 ± 0.031,,,,
MARSKTAQPKHSLRKIAVVVATAVSGMSVYAQAAVEPKEDTITVTAAPAPQESAWGPAATIAARQSATGTKTDTPIQKVPQSISVVTAEEMALHQPKSVKEALSYTPGVSVGTRGASNTYDHLIIRGFAAEGQSQNNYLNGLKLQGNFYNDAVIDPYMLERAEIMRGPVSVLYGKSSPGGLLNMVSKRPTTEPLKEVQFKAGTDSLFQTGFDFSDSLDDDGVYSYRLTGLARSANAQQKGSEEQRYAIAPAFTWRPDDKTNFTFLSYFQNEPETGYYGWLPKEGTVEPLPNGKRLPTDFNEGAKNNTYSRNEKMVGYSFDHEFNDTFTVRQNLRFAENKTSQNSVYGYGVCSDPANAYSKQCAALAPADKGHYLARKYVVDDEKLQNFSVDTQLQSKFATGDIDHTLLTGVDFMRMRNDINAWFGYDDSVPLLNLYNPVNTDFDFNAKDPANSGPYRILNKQKQTGVYVQDQAQWDKVLVTLGGRYDWADQESLNRVAGTTDKRDDKQFTWRGGVNYLFDNGVTPYFSYSESFEPSSQVGKDGNIFAPSKGKQYEVGVKYVPEDRPIVVTGAVYNLTKTNNLMADPEGSFFSVEGGEIRARGVEIEAKAALSASVNVVGSYTYTDAEYTTDTTYKGNTPAQVPKHMASLWADYTFFDGPLSGLTLGTGGRYTGSSYGDPANSFKVGSYTVVDALVRYDLARVGMAGSNVALHVNNLFDREYVASCFNTYGCFWGAERQVVATATFRF,6.92 ± 0.69,6.41 ± 0.62,6.62 ± 0.65,6.11 ± 0.76,,3.36 ± 0.23,6.64 ± 0.37,14.3 ± 1.2,6.14 ± 0.072,11.6 ± 6.1,,13 ± 0.45
MASGDLVRYVITVMLHEDTLTEINELNNYLTRDGFLLTMTDDEGNIHELGTNTFGLISTQSEEEIRELVSGLTQSATGKDPEITITTWEEWNSNRK,6.09 ± 0.66,4.87,4.69,,4.44 ± 0.47,3.04 ± 0.33,4.88 ± 0.37,10.1,6.08,8.21,4.86 ± 0.83,11.1 ± 0.71

# From the supplement of paper PMC11246515
